# Data reported in patent publication US20210395344A1 (TWIST BIOSCIENCE, published 2021).
# Positions count from the first letter of the chain named. Read-outs that look alike come from different tables or passages of the source.
# B1: 1-27 (antibody, V domains shown)
# VH: EVQLLESGGGLVQPGGSLRLSCAASGFTFSSYAMTWVRQAPGKGLEWVSAISGSGGGTYYADSVKGRFTISRDNSKNTLYLQMNSLRAEDTAVYYCASSSSWQFDYWGQGTLVTVSS
# VL: QSALTQPASVSGSPGQSITISCTGTSSYVGHYNLVSWYQQHPGKAPKLMIYEGSRRPSGVSNRFSGSKSGNTASLTISGLQAEDEADYYCCSYAGSYTHYVFGGGTKLTVL
# notes: also called variant 1-27
# B2: 1-28 (antibody, V domains shown)
# VH: B1 VH with A33G, T35S
# VL: B1 VL with Y28G, H31S, R55Q, Y97S
# notes: also called variant 1-28
# B3: 1-10 (antibody, V domains shown)
# VH: EVQLLESGGGLVQPGGSLRLSCAASGFTFSSYDMSWVRQAPGKGLEWVSVISGSGGSTYYADSVKGRFTISRDNSKNTLYLQMNSLRAEDTAVYYCAKGPLVGWYFDLWGQGTLVTVSS
# VL: B1 VL with Y28N, H31S, S54T, R55K, Y97S, T98S, H99F, Y100V
# notes: also called variant 1-10
# B4: 1-7 (antibody, V domains shown)
# VH: B3 VH
# VL: B1 VL with Y28D, V29F, H31S, S54N, R55K, Y97S, H99F, Y100V
# notes: also called variant 1-7
# B5: 1-23 (antibody, V domains shown)
# VH: EVQLLESGGGLVQPGGSLRLSCAASGFTFSSYAISWVRQAPGKGLEWVSIISGSGGSTYYADSVKGRFTISRDNSKNTLYLQMNSLRAEDTAVYYCAREGYRDYLWYFDLWGQGTLVTVSS
# VL: QSALTQPASVSGSPGQSITISCTGTSNDVGSYNLVSWYQQHPGKAPKLMIYEGNKRPSGVSNRFSGSKSGNTASLTISGLQAEDEADYYCCSYAGSYTVFGGGTKLTVL
# notes: also called variant 1-23
# B6: 1-24 (antibody, V domains shown)
# VH: B5 VH with I34M, S35N
# VL: B5 VL with N27S, S31Y, S96G, Y97S, T98V
# notes: also called variant 1-24
# B7: 1-32 (antibody, V domains shown)
# VH: EVQLLESGGGLVQPGGSLRLSCAASGFTFSSYAMYWVRQAPGKGLEWVSAISGSGGSTFYADSVKGRFTISRDNSKNTLYLQMNSLRAEDTAVYYCTRPPYGDYGDYWGQGTLVTVSS
# VL: QSALTQPASVSGSPGQSITISCTGTSSDVGGYNLVSWYQQHPGKAPKLMIYEGNKRPSGVSNRFSGSKSGNTASLTISGLQAEDEADYYCCSYAGSSTFPVVFGGGTKLTVL
# notes: also called variant 1-32
# B8: 1-17 (antibody, V domains shown)
# VH: EVQLLESGGGLVQPGGSLRLSCAASGFTFSSYAMYWVRQAPGKGLEWVSAISGSAGSTYYADSVKGRFTISRDNSKNTLYLQMNSLRAEDTAVYYCARDTNDFWSGYSIFDPWGQGTLVTVSS
# VL: QSALTQPASVSGSPGQSITISCTGTSSDIGSYNLVSWYQQHPGKAPKLMIYEGTKRPSGVSNRFSGSKSGNTASLTISGLQAEDEADYYCCSYAGSRTYVFGGGTKLTVL
# notes: also called variant 1-17
# B9: 1-42 (antibody, V domains shown)
# VH: EVQLLESGGGLVQPGGSLRLSCAASGVTFSSYAMSWVRQAPGKGLEWVSAITGSGGSTYYADSVKGRFTISRDNSKNTLYLQMNSLRAEDTAVYYCAKHGSGTIFGVVIAKYYFDYWGQGTLVTVSS
# VL: B8 VL with I29V, S31R, T54G, G95S, R97S, Y99L
# notes: also called variant 1-42
# Assays:
# [1] = biological target: T1, Acro COVID S1 (S1N-C82E8) (SARS-CoV-2, UniProt P0DTC2 16-685); assay: phage ELISA
# T1 construct: domain: S1
# [2] = biological target: T1, Acro COVID S1 (S1N-C82E8); assay: phage ELISA; remark: listed apart in the source
Binder,ELISA fold over background [1] [fold over background],ELISA fold over background [2] [fold over background]
B1,1.5,1.5
B2,1,1
B3,17.4,17.4
B4,6.8,6.8
B5,5.1,5.1
B6,12.9,12.9
B7,11.5,11.5
B8,25.1,25.1
B9,22.7,22.7
